# Experimental data taken from the RNAGym collection of RNA variant scans (doi:10.1021/acssynbio.7b00057).
# B1: Pistol ribozyme (parent)
# chain: GGGUCGUUGUUCCAUAAUCGCGUGGAUAUGGCACGCAAGUUUCUACCGGGCACCGUAAAUGUCCGACUGGAGCCGUUCGGGCGGCUAUAAACAGACCUCAGGCCCGAAGCGUGGCGGCACCUGCCGCCGGUGGUAAAAAAGAUCGGAAGAGCACACGUCU
# Variants of: B1
# Assay: aptazyme ON/OFF ratio, guanine; higher = stronger switching; co-transcriptional cleavage with and without guanine
row,Variant,aptazyme ON/OFF ratio
1,GGGUCGGUCGAAAAUAAUCGCGUGGAUAUGGCACGCAAGUUUCUACCGGGCACCGUAAAUGUCCGACUGGAGCCGUUCGGGCGGCUAUAAACAGACCUCAGGCCCGAAGCGUGGCGGCACCUGCCGCCGGUGGUAAAAAAGAUCGGAAGAGCACACGUCU [U7G G9C U10G U11A C12A C13A],1.13
2,GGGUCGGUCGAAGAUAAUCGCGUGGAUAUGGCACGCAAGUUUCUACCGGGCACCGUAAAUGUCCGACUGGAGCCGUUCGGGCGGCUAUAAACAGACCUCAGGCCCGAAGCGUGGCGGCACCUGCCGCCGGUGGUAAAAAAGAUCGGAAGAGCACACGUCU [U7G G9C U10G U11A C12A C13G],1.12
3,GGGUCGGUCGAAUAUAAUCGCGUGGAUAUGGCACGCAAGUUUCUACCGGGCACCGUAAAUGUCCGACUGGAGCCGUUCGGGCGGCUAUAAACAGACCUCAGGCCCGAAGCGUGGCGGCACCUGCCGCCGGUGGUAAAAAAGAUCGGAAGAGCACACGUCU [U7G G9C U10G U11A C12A C13U],1.17
4,GGGUCGGUCGUGUAUAAUCGCGUGGAUAUGGCACGCAAGUUUCUACCGGGCACCGUAAAUGUCCGACUGGAGCCGUUCGGGCGGCUAUAAACAGACCUCAGGCCCGAAGCGUGGCGGCACCUGCCGCCGGUGGUAAAAAAGAUCGGAAGAGCACACGUCU [U7G G9C U10G C12G C13U],1.31
5,GGGUCGGUCGUGAAUAAUCGCGUGGAUAUGGCACGCAAGUUUCUACCGGGCACCGUAAAUGUCCGACUGGAGCCGUUCGGGCGGCUAUAAACAGACCUCAGGCCCGAAGCGUGGCGGCACCUGCCGCCGGUGGUAAAAAAGAUCGGAAGAGCACACGUCU [U7G G9C U10G C12G C13A],1.28
6,GGGUCGGUCGUGGAUAAUCGCGUGGAUAUGGCACGCAAGUUUCUACCGGGCACCGUAAAUGUCCGACUGGAGCCGUUCGGGCGGCUAUAAACAGACCUCAGGCCCGAAGCGUGGCGGCACCUGCCGCCGGUGGUAAAAAAGAUCGGAAGAGCACACGUCU [U7G G9C U10G C12G C13G],1.18
7,GGGUCGGUCGAGCAUAAUCGCGUGGAUAUGGCACGCAAGUUUCUACCGGGCACCGUAAAUGUCCGACUGGAGCCGUUCGGGCGGCUAUAAACAGACCUCAGGCCCGAAGCGUGGCGGCACCUGCCGCCGGUGGUAAAAAAGAUCGGAAGAGCACACGUCU [U7G G9C U10G U11A C12G],1.28
8,GGGUCGGUCGAACAUAAUCGCGUGGAUAUGGCACGCAAGUUUCUACCGGGCACCGUAAAUGUCCGACUGGAGCCGUUCGGGCGGCUAUAAACAGACCUCAGGCCCGAAGCGUGGCGGCACCUGCCGCCGGUGGUAAAAAAGAUCGGAAGAGCACACGUCU [U7G G9C U10G U11A C12A],1.18
9,GGGUCGGUCCGGCAUAAUCGCGUGGAUAUGGCACGCAAGUUUCUACCGGGCACCGUAAAUGUCCGACUGGAGCCGUUCGGGCGGCUAUAAACAGACCUCAGGCCCGAAGCGUGGCGGCACCUGCCGCCGGUGGUAAAAAAGAUCGGAAGAGCACACGUCU [U7G G9C U10C U11G C12G],1.1
10,GGGUCGGUCCGUCAUAAUCGCGUGGAUAUGGCACGCAAGUUUCUACCGGGCACCGUAAAUGUCCGACUGGAGCCGUUCGGGCGGCUAUAAACAGACCUCAGGCCCGAAGCGUGGCGGCACCUGCCGCCGGUGGUAAAAAAGAUCGGAAGAGCACACGUCU [U7G G9C U10C U11G C12U],1.57
11,GGGUCGGUCGUCCAUAAUCGCGUGGAUAUGGCACGCAAGUUUCUACCGGGCACCGUAAAUGUCCGACUGGAGCCGUUCGGGCGGCUAUAAACAGACCUCAGGCCCGAAGCGUGGCGGCACCUGCCGCCGGUGGUAAAAAAGAUCGGAAGAGCACACGUCU [U7G G9C U10G],1.89
12,GGGUCGGUCCGAUAUAAUCGCGUGGAUAUGGCACGCAAGUUUCUACCGGGCACCGUAAAUGUCCGACUGGAGCCGUUCGGGCGGCUAUAAACAGACCUCAGGCCCGAAGCGUGGCGGCACCUGCCGCCGGUGGUAAAAAAGAUCGGAAGAGCACACGUCU [U7G G9C U10C U11G C12A C13U],1.08
13,GGGUCGGUCCGAGAUAAUCGCGUGGAUAUGGCACGCAAGUUUCUACCGGGCACCGUAAAUGUCCGACUGGAGCCGUUCGGGCGGCUAUAAACAGACCUCAGGCCCGAAGCGUGGCGGCACCUGCCGCCGGUGGUAAAAAAGAUCGGAAGAGCACACGUCU [U7G G9C U10C U11G C12A C13G],1.13
14,GGGUCGGUCGUUGAUAAUCGCGUGGAUAUGGCACGCAAGUUUCUACCGGGCACCGUAAAUGUCCGACUGGAGCCGUUCGGGCGGCUAUAAACAGACCUCAGGCCCGAAGCGUGGCGGCACCUGCCGCCGGUGGUAAAAAAGAUCGGAAGAGCACACGUCU [U7G G9C U10G C12U C13G],1.38
15,GGGUCGGUCGUUAAUAAUCGCGUGGAUAUGGCACGCAAGUUUCUACCGGGCACCGUAAAUGUCCGACUGGAGCCGUUCGGGCGGCUAUAAACAGACCUCAGGCCCGAAGCGUGGCGGCACCUGCCGCCGGUGGUAAAAAAGAUCGGAAGAGCACACGUCU [U7G G9C U10G C12U C13A],1.24
16,GGGUCGGUCGUUUAUAAUCGCGUGGAUAUGGCACGCAAGUUUCUACCGGGCACCGUAAAUGUCCGACUGGAGCCGUUCGGGCGGCUAUAAACAGACCUCAGGCCCGAAGCGUGGCGGCACCUGCCGCCGGUGGUAAAAAAGAUCGGAAGAGCACACGUCU [U7G G9C U10G C12U C13U],1.13
17,GGGUCGGUCGACCAUAAUCGCGUGGAUAUGGCACGCAAGUUUCUACCGGGCACCGUAAAUGUCCGACUGGAGCCGUUCGGGCGGCUAUAAACAGACCUCAGGCCCGAAGCGUGGCGGCACCUGCCGCCGGUGGUAAAAAAGAUCGGAAGAGCACACGUCU [U7G G9C U10G U11A],1.37
18,GGGUCGGUCGUCUAUAAUCGCGUGGAUAUGGCACGCAAGUUUCUACCGGGCACCGUAAAUGUCCGACUGGAGCCGUUCGGGCGGCUAUAAACAGACCUCAGGCCCGAAGCGUGGCGGCACCUGCCGCCGGUGGUAAAAAAGAUCGGAAGAGCACACGUCU [U7G G9C U10G C13U],1.36

row,Variant,aptazyme ON/OFF ratio
1,GGGUCGGUCGUCGAUAAUCGCGUGGAUAUGGCACGCAAGUUUCUACCGGGCACCGUAAAUGUCCGACUGGAGCCGUUCGGGCGGCUAUAAACAGACCUCAGGCCCGAAGCGUGGCGGCACCUGCCGCCGGUGGUAAAAAAGAUCGGAAGAGCACACGUCU [U7G G9C U10G C13G],1.23
2,GGGUCGGUCGUCAAUAAUCGCGUGGAUAUGGCACGCAAGUUUCUACCGGGCACCGUAAAUGUCCGACUGGAGCCGUUCGGGCGGCUAUAAACAGACCUCAGGCCCGAAGCGUGGCGGCACCUGCCGCCGGUGGUAAAAAAGAUCGGAAGAGCACACGUCU [U7G G9C U10G C13A],1.41
3,GGGUCGGUCGUGCAUAAUCGCGUGGAUAUGGCACGCAAGUUUCUACCGGGCACCGUAAAUGUCCGACUGGAGCCGUUCGGGCGGCUAUAAACAGACCUCAGGCCCGAAGCGUGGCGGCACCUGCCGCCGGUGGUAAAAAAGAUCGGAAGAGCACACGUCU [U7G G9C U10G C12G],1.51
4,GGGUCGGUCGUACAUAAUCGCGUGGAUAUGGCACGCAAGUUUCUACCGGGCACCGUAAAUGUCCGACUGGAGCCGUUCGGGCGGCUAUAAACAGACCUCAGGCCCGAAGCGUGGCGGCACCUGCCGCCGGUGGUAAAAAAGAUCGGAAGAGCACACGUCU [U7G G9C U10G C12A],1.65
5,GGGUCGGUCGUUCAUAAUCGCGUGGAUAUGGCACGCAAGUUUCUACCGGGCACCGUAAAUGUCCGACUGGAGCCGUUCGGGCGGCUAUAAACAGACCUCAGGCCCGAAGCGUGGCGGCACCUGCCGCCGGUGGUAAAAAAGAUCGGAAGAGCACACGUCU [U7G G9C U10G C12U],1.38
6,GGGUCGGUCCGCGAUAAUCGCGUGGAUAUGGCACGCAAGUUUCUACCGGGCACCGUAAAUGUCCGACUGGAGCCGUUCGGGCGGCUAUAAACAGACCUCAGGCCCGAAGCGUGGCGGCACCUGCCGCCGGUGGUAAAAAAGAUCGGAAGAGCACACGUCU [U7G G9C U10C U11G C13G],1.17
7,GGGUCGGUCCGCAAUAAUCGCGUGGAUAUGGCACGCAAGUUUCUACCGGGCACCGUAAAUGUCCGACUGGAGCCGUUCGGGCGGCUAUAAACAGACCUCAGGCCCGAAGCGUGGCGGCACCUGCCGCCGGUGGUAAAAAAGAUCGGAAGAGCACACGUCU [U7G G9C U10C U11G C13A],1.19
8,GGGUCGGUCCGCUAUAAUCGCGUGGAUAUGGCACGCAAGUUUCUACCGGGCACCGUAAAUGUCCGACUGGAGCCGUUCGGGCGGCUAUAAACAGACCUCAGGCCCGAAGCGUGGCGGCACCUGCCGCCGGUGGUAAAAAAGAUCGGAAGAGCACACGUCU [U7G G9C U10C U11G C13U],1.27
9,GGGUCGGUCCGUAAUAAUCGCGUGGAUAUGGCACGCAAGUUUCUACCGGGCACCGUAAAUGUCCGACUGGAGCCGUUCGGGCGGCUAUAAACAGACCUCAGGCCCGAAGCGUGGCGGCACCUGCCGCCGGUGGUAAAAAAGAUCGGAAGAGCACACGUCU [U7G G9C U10C U11G C12U C13A],1.33
10,GGGUCGGUCCGUUAUAAUCGCGUGGAUAUGGCACGCAAGUUUCUACCGGGCACCGUAAAUGUCCGACUGGAGCCGUUCGGGCGGCUAUAAACAGACCUCAGGCCCGAAGCGUGGCGGCACCUGCCGCCGGUGGUAAAAAAGAUCGGAAGAGCACACGUCU [U7G G9C U10C U11G C12U C13U],1.34
11,GGGUCGGUCCGUGAUAAUCGCGUGGAUAUGGCACGCAAGUUUCUACCGGGCACCGUAAAUGUCCGACUGGAGCCGUUCGGGCGGCUAUAAACAGACCUCAGGCCCGAAGCGUGGCGGCACCUGCCGCCGGUGGUAAAAAAGAUCGGAAGAGCACACGUCU [U7G G9C U10C U11G C12U C13G],1.26
12,GGGUCGGUCGUAGAUAAUCGCGUGGAUAUGGCACGCAAGUUUCUACCGGGCACCGUAAAUGUCCGACUGGAGCCGUUCGGGCGGCUAUAAACAGACCUCAGGCCCGAAGCGUGGCGGCACCUGCCGCCGGUGGUAAAAAAGAUCGGAAGAGCACACGUCU [U7G G9C U10G C12A C13G],1.11
13,GGGUCGGUCGUAUAUAAUCGCGUGGAUAUGGCACGCAAGUUUCUACCGGGCACCGUAAAUGUCCGACUGGAGCCGUUCGGGCGGCUAUAAACAGACCUCAGGCCCGAAGCGUGGCGGCACCUGCCGCCGGUGGUAAAAAAGAUCGGAAGAGCACACGUCU [U7G G9C U10G C12A C13U],1.25
14,GGGUCGGUCGUAAAUAAUCGCGUGGAUAUGGCACGCAAGUUUCUACCGGGCACCGUAAAUGUCCGACUGGAGCCGUUCGGGCGGCUAUAAACAGACCUCAGGCCCGAAGCGUGGCGGCACCUGCCGCCGGUGGUAAAAAAGAUCGGAAGAGCACACGUCU [U7G G9C U10G C12A C13A],1.23
15,GGGUCGGUCGAGAAUAAUCGCGUGGAUAUGGCACGCAAGUUUCUACCGGGCACCGUAAAUGUCCGACUGGAGCCGUUCGGGCGGCUAUAAACAGACCUCAGGCCCGAAGCGUGGCGGCACCUGCCGCCGGUGGUAAAAAAGAUCGGAAGAGCACACGUCU [U7G G9C U10G U11A C12G C13A],1.14
16,GGGUCGGUCCGGAAUAAUCGCGUGGAUAUGGCACGCAAGUUUCUACCGGGCACCGUAAAUGUCCGACUGGAGCCGUUCGGGCGGCUAUAAACAGACCUCAGGCCCGAAGCGUGGCGGCACCUGCCGCCGGUGGUAAAAAAGAUCGGAAGAGCACACGUCU [U7G G9C U10C U11G C12G C13A],1.09
17,GGGUCGGUCCGGUAUAAUCGCGUGGAUAUGGCACGCAAGUUUCUACCGGGCACCGUAAAUGUCCGACUGGAGCCGUUCGGGCGGCUAUAAACAGACCUCAGGCCCGAAGCGUGGCGGCACCUGCCGCCGGUGGUAAAAAAGAUCGGAAGAGCACACGUCU [U7G G9C U10C U11G C12G C13U],1.08
18,GGGUCGGUCCGGGAUAAUCGCGUGGAUAUGGCACGCAAGUUUCUACCGGGCACCGUAAAUGUCCGACUGGAGCCGUUCGGGCGGCUAUAAACAGACCUCAGGCCCGAAGCGUGGCGGCACCUGCCGCCGGUGGUAAAAAAGAUCGGAAGAGCACACGUCU [U7G G9C U10C U11G C12G C13G],1.08
